Results from patent US20260078186A1 (HEFEI TG IMMUNOPHARMA, published 2026).
One block for each binder: values may come before it.

Tests used:
[1] = target: T1, PD-L1 on the surface of tumor cells (human lung adenocarcinoma A549 cells, human melanoma A375 cells) (human, UniProt Q9NZQ7 19-290); assay: flow cytometry on A375 and A549 cells
T1 construct: whole, on cells; No PD-L1-negative control cell is described; also called PD-L1 protein on the surface of tumor cells
Method: Human melanoma A375 cells and human lung adenocarcinoma A549 cells were diluted to 1×10⁶ cells/mL with PBS and added to 1.5 mL EP tubes at 100 μL/tube. 10 μL/tube of rat serum was added and blocked at 4° C. for 30 minutes. […] 1 mL of PBS was added to the EP tube. The system was centrifuged at 4° C. and 3500 rpm for 5 min. The supernatant was discarded, and the system was washed again with PBS. After centrifugation, the supernatant was discarded, and the cells were resuspended with 100 μL/tube PBS. 1 μL/tube of Alexa-647-labeled rat anti-human secondary antibody (Biolegend) was added and incubated at 4° C. in the dark for 30 min. The system was washed twice with PBS, and the supernatant was discarded after centrifugation. The cells were resuspended with 200 μL/tube PBS and detected by flow cytometry.

[2] = target: T2, Human PD-L1-Fc fusion protein (purchased from Acro) (human, UniProt Q9NZQ7 19-238); assay: ELISA
T2 construct: extracellular domain; also called PD-L1 fusion protein; PD-L1 extracellular region protein; not shown: Fc part of the bought fusion protein

[3] = target: T2, Human PD-L1-Fc fusion protein …; assay: ELISA, PD-L1-Fc coated at 1 µg/ml; h19B8 binds slightly more strongly than CD3×h19B8
Method: The PD-L1-Fc fusion protein was diluted to 1 μg/ml with PBS buffer, added to a 96-well plate at 100 μl/well, and placed at 4° C. overnight. The PBS buffer in the 96-well plate was removed, and the plate was washed 6 times with PBST (pH 7.2 PBS containing 0.1% Tween 20) buffer. PBS/10% BSA was added at 200 μl/well and incubated at 37° C. for 2 h for blocking. The blocking solution was removed, and the plate was washed 6 times with PBST. […] The reaction system was removed, and the plate was washed 6 times with PBST. HRP (horseradish peroxidase)-labeled anti-human IgG-Fab secondary antibody was diluted with PBST/0.05% BSA at 100 μl/well and incubated at 37° C. for 1 h. After washing the plate 6 times with PBST, 80 μl/well TMB (tetramethylbenzidine) was added and incubated at room temperature for 3 min. 4 M sulfuric acid was added at 80 μL/well to terminate the reaction. The absorbance was read at 450 nm using a microplate reader.

[4] = target: T1, PD-L1 on the surface of tumor cells …; assay: flow cytometry on A549 cells
Method: 1 mL of PBS was added to the EP tube. […] The supernatant was discarded, and the system was washed again with PBS. […] The system was washed twice with PBS, and the supernatant was discarded after centrifugation. The cells were resuspended with 200 μL/tube PBS and detected by flow cytometry.

[5] = target: T2, Human PD-L1-Fc fusion protein …; assay: ELISA, PD-L1-Fc coated at 1 µg/ml, anti-mouse IgG-HRP
Method: The PBS buffer in the 96-well plate was removed, and the plate was washed 6 times with PBST (pH 7.2 PBS containing 0.1% Tween 20) buffer. PBS/10% BSA was added at 200 μl/well and incubated at 37° C. for 2 h for blocking. The blocking solution was removed, and the plate was washed 6 times with PBST. […] The reaction system was removed, and the plate was washed 6 times with PBST. HRP (horseradish peroxidase)-labeled anti-mouse IgG secondary antibody was diluted with PBST/0.05% BSA at 100 μl/well and incubated at 37° C. for 1 h. After washing the plate 6 times with PBST, 80 μl/well TMB (tetramethylbenzidine) was added and incubated at room temperature for 3 min. 4 M sulfuric acid was added at 80 μl/well to terminate the reaction. The absorbance was read at 450 nm using a microplate reader.

T2 sequence (Q9NZQ7 19-238): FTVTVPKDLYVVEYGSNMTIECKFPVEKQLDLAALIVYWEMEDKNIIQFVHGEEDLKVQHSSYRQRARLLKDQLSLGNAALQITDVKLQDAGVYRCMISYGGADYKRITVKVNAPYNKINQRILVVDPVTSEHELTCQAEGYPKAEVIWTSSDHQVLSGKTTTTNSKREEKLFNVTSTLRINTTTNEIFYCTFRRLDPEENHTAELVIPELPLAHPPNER
T1 sequence (Q9NZQ7 19-290): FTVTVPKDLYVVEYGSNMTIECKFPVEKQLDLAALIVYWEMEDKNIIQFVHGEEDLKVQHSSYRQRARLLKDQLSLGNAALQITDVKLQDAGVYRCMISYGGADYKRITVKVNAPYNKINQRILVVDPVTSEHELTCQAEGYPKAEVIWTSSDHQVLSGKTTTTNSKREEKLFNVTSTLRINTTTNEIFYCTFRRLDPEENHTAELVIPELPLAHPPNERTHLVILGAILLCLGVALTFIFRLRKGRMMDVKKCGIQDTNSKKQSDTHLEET

- binding result [1]: binds
- binding result [2]: binds
B1: chimeric antibody 19B8-hIgG1LALA (19B8-hIgG1LALA heavy chain / 19B8-hK light chain) (antibody)
heavy: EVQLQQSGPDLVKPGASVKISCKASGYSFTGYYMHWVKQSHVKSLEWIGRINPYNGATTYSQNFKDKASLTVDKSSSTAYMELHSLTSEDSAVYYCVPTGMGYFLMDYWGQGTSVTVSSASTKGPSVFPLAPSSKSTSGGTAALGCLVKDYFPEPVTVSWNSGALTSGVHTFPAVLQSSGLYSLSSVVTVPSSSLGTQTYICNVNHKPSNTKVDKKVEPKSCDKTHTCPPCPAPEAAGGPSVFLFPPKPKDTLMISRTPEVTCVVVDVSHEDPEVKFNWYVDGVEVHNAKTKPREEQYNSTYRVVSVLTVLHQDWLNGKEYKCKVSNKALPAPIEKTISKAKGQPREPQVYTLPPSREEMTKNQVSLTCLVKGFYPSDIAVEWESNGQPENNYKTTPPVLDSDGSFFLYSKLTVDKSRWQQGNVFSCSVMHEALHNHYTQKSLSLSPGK
light: DIVMTQSHKFMSASVGDRVSITCKASQDVGSAVVWYRQKPGQSPKLLIYWASTRHTGVPDRFTGSGSGTDFTLTISNVQSEDLADYFCQQFTSYPTFGSGTRLEIKRTVAAPSVFIFPPSDEQLKSGTASVVCLLNNFYPREAKVQWKVDNALQSGNSQESVTEQDSKDSTYSLSSTLTLSKADYEKHKVYACEVTHQGLSSPVTKSFNRGEC
notes: Murine 19B8 variable regions on human IgG1 LALA / human kappa constant regions; also called 19B8 chimeric antibody; human-murine chimeric PD-L1 antibody

- binding result [3]: binds
- binding result [1]: binds
B2: humanized PD-L1 antibody h19B8-hIgG1LALA (h19B8-hIgG1LALA heavy chain / h19B8-hK light chain) (antibody, V domains shown)
VH: QVQLVQSGAEVKKPGASVKVSCKASGYSFTGYYMHWVRQAPGQGLEWIGRINPYNGATTYSQNFKDRATMTVDTSISTAYMELSRLRSDDTAVYYCVPTGMGYFLMDYWGQGTLVTVSS
VL: DIQLTQSPSFLSASVGDRVTITCKASQDVGSAVVWYQQKPGKAPKLLIYWASTRHTGVPSRFSGSGSGTEFTLTISSLQPEDFATYFCQQFTSYPTFGQGTKLEIKR
notes: also called humanized 19B8 antibody; h19B8 monoclonal antibody

- binding result [4]: binds
- binding result [5]: binds
B3: murine 19B8 antibody (19B8-mIgG1 heavy chain / 19B8-mK light chain) (antibody)
heavy: EVQLQQSGPDLVKPGASVKISCKASGYSFTGYYMHWVKQSHVKSLEWIGRINPYNGATTYSQNFKDKASLTVDKSSSTAYMELHSLTSEDSAVYYCVPTGMGYFLMDYWGQGTSVTVSSAKTTPPSVYPLAPGSAAQTNSMVTLGCLVKGYFPEPVTVTWNSGSLSSGVHTFPAVLQSDLYTLSSSVTVPSSPRPSETVTCNVAHPASSTKVDKKIVPRDCGCKPCICTVPEVSSVFIFPPKPKDVLTITLTPKVTCVVVDISKDDPEVQFSWFVDDVEVHTAQTQPREEQFNSTFRSVSELPIMHQDWLNGKEFKCRVNSAAFPAPIEKTISKTKGRPKAPQVYTIPPPKEQMAKDKVSLTCMITDFFPEDITVEWQWNGQPAENYKNTQPIMNTNGSYFVYSKLNVQKSNWEAGNTFTCSVLHEGLHNHHTEKSLSHSPGK
light: DIVMTQSHKFMSASVGDRVSITCKASQDVGSAVVWYRQKPGQSPKLLIYWASTRHTGVPDRFTGSGSGTDFTLTISNVQSEDLADYFCQQFTSYPTFGSGTRLEIKRADAAPTVSIFPPSSEQLTSGGASVVCFLNNFYPKDINVKWKIDGSERQNGVLNSWTDQDSKDSTYSMSSTLTLTKDEYERHNSYTCEATHKTSTSPIVKSFNRNEC
notes: Recombinant murine IgG1/kappa made in ExpiCHO-S cells; also called murine PD-L1 antibody 19B8; murine PD-L1 antibody (19B8)
